From patent US20060142546A1, “Immunogenic muc1 glycopeptides” (priority 2002, published 2006) come the findings set out here.

Test [1] addresses T1, human cathepsin L (Homo sapiens, UniProt P07711).
T1 construct: in the cathepsin L preparation from human liver; purchased Sigma (München, Germany); host or cells: human liver
Briefly: In vitro proteolysis of native MUC1 and MUC1 (glyco)peptides with human cathepsin L. It counts as biochemical. As to conditions: for proteolysis by cathepsin L: 3 h or 24 h. On the procedure: FIG. 4: In vitro proteolysis of MUC1 glycopeptide A3 by human cathepsin L. N-terminally free or biotinylated MUC1 glycopeptide A3 (10 μg) were treated for 3 h with 1 milliunit of cathepsin L in the presence or absence of the cathepsin L/B-specific cysteine protease inhibitor Z-Leu-Leu-Leu-fluoromethyl ketone (1 μM) using 0.1M sodium acetate, pH 5.5, containing 1 mM EDTA, and 1 mM DTT as reaction buffer.
Human cathepsins L and D were purchased from Sigma (München, Germany) and solubilized in 0.1 M sodium acetate buffer, pH 5.5, containing 1 mM EDTA (cathepsin D) and 1 mM dithiotreitol (cathepsin L). 2-5 units of enzyme(s) were added to 100 μg of mucin or recombinant fusion protein or to 10 μg of (glyco)peptide substrates in a total volume of 20 μl digestion buffer (see above). The reaction mixtures were incubated at 37° C. and 2 μl were withdrawn after 3 h or 24 h and diluted 20 fold in 0.1% aqueous TFA prior to MALDI mass spectrometry. In case of native MUC1 samples with complex O-glycosylation (MUC1 from tumor ascites, HMFG-MUC1, partially deglycosylated HMFG-MUC1, and MFP6 fusion protein) the digest was desalted by solid-phase extraction (ZipTip C18) and the (glyco)peptides were deglycosylated by β-elimination/ethylaminylation in 70% ethylamine at 50° C. as previously described (Müller and Hanisch, J. Biol. Chem. 277 (2002), 26103-26112). Each glycosylated position in the peptide fragments corresponds to the addition of a 27 u mass increment.

Test [2] deals with human immature dendritic cells. Put plainly: Processing of MUC1 antigen by human monocyte-derived dendritic cells (antigen pulse, MALDI/LC-MS of fragments). The format is cell-based. Particulars: cellular lysate or culture supernatant, mass range up to 8 kDa.
Procedure: Human immature DCs were pulsed with native, N-terminally unmodified, soluble antigens, while the mature mouse DCs had to be fed with particulate antigen to reach sufficient antigen load. […] Simultaneously, the maturation process of the cells was induced by addition of 20 ng/ml tumor necrosis factor (TNF-α; Sigma-Aldrich, Munich, Germany) and 10 μg/ml of anti-CD40 antibody (Pharmingen, San Diego, Calif.). The cells were finally separated from medium by centrifugation, washed in PBS and both fractions were analysed for the presence of peptide/glycopeptide fragments according to the protocol described below.
The human or mouse dendritic cell fractions were treated on ice for 15 min with 100 μl 1% NP40, 10 mM Tris-HCl, 150 mM NaCl, pH 8.0 containing a cocktail of protease inhibitors (Sigma P8340, München, Germany) followed by ultrasonication for 2 min. […] To avoid selection of product subfractions by affinity-isolation, in most experiments the peptides were enriched by solid-phase extraction on reversed-phase columns.
Peptides and glycopeptides contained in the cell-free supernatants were affinity-isolated by solid-phase extraction on reversed-phase supports (100 μg polysphere C18, 50 μl Poros C18). […]
Test [3] has as its system Cathepsin L-like activity in low-density endosomes from mouse dendritic cells. Briefly: Proteolysis of TAP25 by low-density endosomal fractions from mouse dendritic cells. The format is biochemical. As to conditions: 1 μM inhibitor, TAP25 as substrate. How it is done: Mouse dendritic cells (10^8) were homogenized by fine-needle aspiration on ice using 1 ml of 0.3 M sucrose, 0.01 M Hepes as buffer (without protease inhibitors). After dilution to 7 ml and centrifugation at 850 g for 10 min to remove intact cells and nuclei, 6 ml of the supernatant were centrifuged over 24 ml of 30% Percoll with 0.3 M sucrose, 0.01 M Hepes for 105 min at 20.000 rpm in a centrifuge (model J2-21 M/E, rotor: JA-20, Beckman instruments, München, Germany) (Barnes et al., J. Exp. Med. 181 (1995), 1715-1727). The gradient was fractionated by gravity siphon (30×1 ml) and each fraction was analysed after sonication for the presence of MHC class II molecules by enzyme immunoassay with anti-H2 antibody (rat hybridoma cell line M1/42.3.9.8.HLK obtained from the ATCC), β-hexosamimidase activity (Barnes et al., 1995) and cathepsin L related proteolytic activity using TAP25 peptide as substrate (5 μg). The samples were incubated for 24 h at 37° C., diluted 20 fold in aqueous TFA and analysed by MALDI mass spectrometry. For specific inhibition of cathepsin L activity, the corresponding fractions were mixed with 1 μM Z-Leu-Leu-Leu-fluoromethyl ketone (Sigma).

Where a SMILES comes first, the peptide text is derived from it. Where no end group is shown, it is not given here. The star is where a group is joined. Cbz = O=C(OCc1ccccc1)*; CH2F = FC*

T1 sequence (P07711 114-288 limits assumed): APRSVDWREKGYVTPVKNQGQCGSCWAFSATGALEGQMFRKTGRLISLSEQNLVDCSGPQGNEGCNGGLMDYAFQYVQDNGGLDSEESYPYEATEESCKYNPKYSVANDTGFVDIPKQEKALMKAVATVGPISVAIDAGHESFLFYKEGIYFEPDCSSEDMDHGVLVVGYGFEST
T1 sequence (P07711 292-333 limits assumed): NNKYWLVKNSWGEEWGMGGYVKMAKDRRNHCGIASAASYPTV

For the molecule “Asc-MUC1: MUC1 from pooled human tumor ascites”, the “proteolysis by cathepsin L” value in test [1] (pH 5.5, 1 mM DTT, 37° C.) is on record as “not digested”. Besides, the fragmentation of antigen entry in test [2] is reported as “No fragmentation”.
For the molecule “HMFG-MUC1: mucin from human milk fat globule membranes”, the “proteolysis by cathepsin L” value in test [1] (pH 5.5, 1 mM DTT, 37° C.) was “not digested”.
As to `CC(C)C[C@H](NC(=O)[C@H](CC(C)C)NC(=O)[C@H](CC(C)C)NC(=O)OCc1ccccc1)C(=O)CF` [Z-Leu-Leu-Leu-fluoromethyl ketone, reference compound] (Cbz-Leu-Leu-Leu-CH2F), the “inhibition of catalytic activity directed to the Thr-Ser bond” value in test [1] (inhibitor 1 μM, substrate glycopeptide A3) is “specifically inhibited”. Besides, the “inhibition of cysteine protease in low density endosomes” value in test [3] is on record as “inhibitable”.
On to “AHGVTSAPESRPAPGSTAPAA (not fully specified (residue 5); also: GalNAc glycan at Thr5 (H4), Ser10 (H5) or Thr17 (H6), which one is not fixed for this name, biotinylated)”, for which, in test [1] (pH 5.5, 1 mM DTT, 37° C.), the “proteolysis by cathepsin L” value is reported as “stable to proteolysis”.
As to “GST20-AES (GSTAPAAHGVTSAPESRPAP; also: glycosylated, sites not given here)”, the “structural assignment of product” value in test [1] (Table 2, 3 h, 37° C., pH 5.5) is “SAP9”. Besides, the “Average mass of production (mass range 500-4500 Da)” value in test [1] (Table 2, synthetic monomeric repeat peptides, N-terminally unmodified, 3 h, 37° C., pH 5.5, 1 mM DTT) stood at 910.8 Da. The molecule also showed a cleavage in test [1] (standard conditions for cysteine proteases, incubation 3 h) of 80%.
On to “GalNAc-MUC1: partially deglycosylated HMFG-MUC1”, for which the “structural assignment of repeat fragment ion” value in test [1] (Table 3, native mucin, after de-O-glycosylation/ethylaminylation) was “GVT20 + 1-4 HexNAc”. In test [1] (pH 5.5, 1 mM DTT, 37° C.), the “proteolysis by cathepsin L” value is “fragmentation by cathepsin L at low efficiency”.
